# Experimental data taken from publication PMC10397247.
# Assays:
# 4H3817-bN = biological target: T1, 4H3817-bN; experiment: two-hybrid library CCNG1;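 note: natural log of median RNA to DNA barcode read ratio; higher means stronger binding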
# T1 chain: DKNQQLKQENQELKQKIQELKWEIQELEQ
# 4H953-bH = biological target: T2, 4H953-bH; experiment: two-hybrid library CCNG1;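 note: natural log of median RNA to DNA barcode read ratio; higher means stronger binding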
# T2 chain: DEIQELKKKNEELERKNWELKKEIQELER
# 4H850-bN = biological target: T3, 4H850-bN; experiment: two-hybrid library CCNG1;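 note: natural log of median RNA to DNA barcode read ratio; higher means stronger binding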
# T3 chain: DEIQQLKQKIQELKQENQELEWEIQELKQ
# 4H619-bN = biological target: T4, 4H619-bN; experiment: two-hybrid library CCNG1;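 note: natural log of median RNA to DNA barcode read ratio; higher means stronger binding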
# T4 chain: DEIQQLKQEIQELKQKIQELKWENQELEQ
# 4H906-bN = biological target: T5, 4H906-bN; experiment: two-hybrid library CCNG1;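 note: natural log of median RNA to DNA barcode read ratio; higher means stronger binding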
# T5 chain: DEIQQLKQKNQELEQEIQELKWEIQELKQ
# 4H3974-bN = biological target: T6, 4H3974-bN; experiment: two-hybrid library CCNG1;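 note: natural log of median RNA to DNA barcode read ratio; higher means stronger binding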
# T6 chain: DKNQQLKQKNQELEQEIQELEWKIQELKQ
# 4H3638-bN = biological target: T7, 4H3638-bN; experiment: two-hybrid library CCNG1
# T7 chain: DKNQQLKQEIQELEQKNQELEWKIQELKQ
# 4H570-bN = biological target: T8, 4H570-bN; experiment: two-hybrid library CCNG1
# T8 chain: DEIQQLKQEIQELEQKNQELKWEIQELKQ
# 4H584-bN = biological target: T9, 4H584-bN; experiment: two-hybrid library CCNG1
# T9 chain: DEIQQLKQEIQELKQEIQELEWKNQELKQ
# 4H906-bA = biological target: T10, 4H906-bA; experiment: two-hybrid library CCNG1
# T10 chain: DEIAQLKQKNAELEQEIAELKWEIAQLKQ
# 4H3974-bA = biological target: T11, 4H3974-bA; experiment: two-hybrid library CCNG1
# T11 chain: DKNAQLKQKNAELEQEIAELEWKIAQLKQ
# 4H591-bA = biological target: T12, 4H591-bA; experiment: two-hybrid library CCNG1
# T12 chain: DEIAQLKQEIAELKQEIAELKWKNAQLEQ
# 4H3628-bA = biological target: T13, 4H3628-bA; experiment: two-hybrid library CCNG1
# T13 chain: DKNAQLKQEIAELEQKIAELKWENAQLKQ
# 4H3926-bA = biological target: T14, 4H3926-bA; experiment: two-hybrid library CCNG1
# T14 chain: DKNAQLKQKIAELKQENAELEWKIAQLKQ
# 4H3817-bA = biological target: T15, 4H3817-bA; experiment: two-hybrid library CCNG1
# T15 chain: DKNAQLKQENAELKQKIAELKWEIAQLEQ
# 4H570-bA = biological target: T16, 4H570-bA; experiment: two-hybrid library CCNG1
# T16 chain: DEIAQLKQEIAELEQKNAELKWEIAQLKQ
# 4H626-bA = biological target: T17, 4H626-bA; experiment: two-hybrid library CCNG1
# T17 chain: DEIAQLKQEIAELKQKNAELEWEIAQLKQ
# 4H850-bA = biological target: T18, 4H850-bA; experiment: two-hybrid library CCNG1
# T18 chain: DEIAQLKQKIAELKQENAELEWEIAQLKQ
# 4H3613-bA = biological target: T19, 4H3613-bA; experiment: two-hybrid library CCNG1
# T19 chain: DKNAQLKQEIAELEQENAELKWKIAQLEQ
# 4H3858-bA = biological target: T20, 4H3858-bA; experiment: two-hybrid library CCNG1
# T20 chain: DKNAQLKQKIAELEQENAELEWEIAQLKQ
# 4H3497-bN = biological target: T21, 4H3497-bN; experiment: two-hybrid library CCNG1
# T21 chain: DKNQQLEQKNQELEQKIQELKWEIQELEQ
# 4H591-bN = biological target: T22, 4H591-bN; experiment: two-hybrid library CCNG1
# T22 chain: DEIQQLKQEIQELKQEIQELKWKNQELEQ
# 4H3628-bN = biological target: T23, 4H3628-bN; experiment: two-hybrid library CCNG1
# T23 chain: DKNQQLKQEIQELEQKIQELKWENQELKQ
# 4H626-bN = biological target: T24, 4H626-bN; experiment: two-hybrid library CCNG1
# T24 chain: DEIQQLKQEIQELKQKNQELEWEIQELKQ
# 4H3613-bN = biological target: T25, 4H3613-bN; experiment: two-hybrid library CCNG1
# T25 chain: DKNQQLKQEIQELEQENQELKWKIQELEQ
# 4H3926-bN = biological target: T26, 4H3926-bN; experiment: two-hybrid library CCNG1
# T26 chain: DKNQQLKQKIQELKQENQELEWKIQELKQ
# 4H3631-bA = biological target: T27, 4H3631-bA; experiment: two-hybrid library CCNG1
# T27 chain: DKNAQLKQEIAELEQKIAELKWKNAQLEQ
# 4H584-bA = biological target: T28, 4H584-bA; experiment: two-hybrid library CCNG1
# T28 chain: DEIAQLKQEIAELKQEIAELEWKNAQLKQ
# 4H619-bA = biological target: T29, 4H619-bA; experiment: two-hybrid library CCNG1
# T29 chain: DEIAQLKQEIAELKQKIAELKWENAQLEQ
# 4H3638-bA = biological target: T30, 4H3638-bA; experiment: two-hybrid library CCNG1
# T30 chain: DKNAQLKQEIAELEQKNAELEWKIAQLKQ
# 4H3134-AA = biological target: T31, 4H3134-AA; experiment: two-hybrid library CCmax; details: mean of both orientations
# T31 chain: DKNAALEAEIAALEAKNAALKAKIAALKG
# 4H510-AA = biological target: T32, 4H510-AA; experiment: two-hybrid library CCmax; details: mean of both orientations
# T32 chain: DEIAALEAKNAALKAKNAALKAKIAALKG
# 4H2873-AA = biological target: T33, 4H2873-AA; experiment: two-hybrid library CCmax; details: mean of both orientations
# T33 chain: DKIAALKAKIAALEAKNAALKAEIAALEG
# 4H2985-AA = biological target: T34, 4H2985-AA; experiment: two-hybrid library CCmax; details: mean of both orientations
# T34 chain: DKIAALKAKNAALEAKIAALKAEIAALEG
# 4H3409-AA = biological target: T35, 4H3409-AA; experiment: two-hybrid library CCmax; details: mean of both orientations
# T35 chain: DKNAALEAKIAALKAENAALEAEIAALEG
# 4H390-AA = biological target: T36, 4H390-AA; experiment: two-hybrid library CCmax; details: mean of both orientations
# T36 chain: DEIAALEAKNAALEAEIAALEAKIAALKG
# 4H278-AA = biological target: T37, 4H278-AA; experiment: two-hybrid library CCmax
# T37 chain: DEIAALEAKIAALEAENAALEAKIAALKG
# 4H3940-AA = biological target: T38, 4H3940-AA; experiment: two-hybrid library CCmax; details: mean of both orientations
# T38 chain: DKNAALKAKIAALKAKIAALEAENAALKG
# 4H775-AA = biological target: T39, 4H775-AA; experiment: two-hybrid library CCmax
# T39 chain: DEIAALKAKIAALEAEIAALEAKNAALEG
# 4H3625-AA = biological target: T40, 4H3625-AA; experiment: two-hybrid library CCmax; details: mean of both orientations
# T40 chain: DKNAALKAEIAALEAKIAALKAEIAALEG
# 4H816-AA = biological target: T41, 4H816-AA; experiment: two-hybrid library CCmax; details: mean of both orientations
# T41 chain: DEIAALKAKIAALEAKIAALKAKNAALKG
# 4H87-AA = biological target: T42, 4H87-AA; experiment: two-hybrid library CCmax; details: mean of both orientations
# T42 chain: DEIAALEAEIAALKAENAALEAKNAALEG
# P9-AA = biological target: T43, P9-AA; experiment: two-hybrid library CCmax; details: mean of both orientations
# T43 chain: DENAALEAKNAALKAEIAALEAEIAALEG
# P10-AA = biological target: T44, P10-AA; experiment: two-hybrid library CCmax; details: mean of both orientations
# T44 chain: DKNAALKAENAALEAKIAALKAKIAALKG
# O8-AA = biological target: T45, O8-AA; experiment: two-hybrid library CCmax; details: mean of both orientations
# T45 chain: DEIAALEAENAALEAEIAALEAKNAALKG
# O7-AA = biological target: T46, O7-AA; experiment: two-hybrid library CCmax
# T46 chain: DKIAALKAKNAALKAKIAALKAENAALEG
# P8mS = biological target: T47, P8mS; experiment: two-hybrid library CC1; details: mean of both orientations
# T47 chain: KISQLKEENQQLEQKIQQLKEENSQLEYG
# P6mS = biological target: T48, P6mS; experiment: two-hybrid library CC1; details: mean of both orientations
# T48 chain: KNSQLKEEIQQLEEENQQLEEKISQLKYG
# P8 = biological target: T49, P8; experiment: two-hybrid library CC1; details: mean of both orientations
# T49 chain: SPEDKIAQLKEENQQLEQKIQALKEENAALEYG
# P7mS = biological target: T50, P7mS; experiment: two-hybrid library CC1; details: mean of both orientations
# T50 chain: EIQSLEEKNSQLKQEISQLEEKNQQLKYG
# P9 = biological target: T51, P9; experiment: two-hybrid library CC1; details: mean of both orientations
# T51 chain: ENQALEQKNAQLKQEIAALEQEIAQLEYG
# P6SC2 = biological target: T52, P6SC2; experiment: two-hybrid library CC1; details: mean of both orientations
# T52 chain: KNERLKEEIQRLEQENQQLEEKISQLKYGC
# P7 = biological target: T53, P7; experiment: two-hybrid library CC1; details: mean of both orientations
# T53 chain: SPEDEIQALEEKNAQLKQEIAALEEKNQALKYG
# P6SC1 = biological target: T54, P6SC1; experiment: two-hybrid library CC1
# T54 chain: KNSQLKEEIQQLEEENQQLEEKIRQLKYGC
binder,measurement,setting,value
DKNQQLKQEIQELEQKNQELEWKIQELKQ [4H3638-bN],interaction score,4H3817-bN,-0.442
same,interaction score,4H953-bH,-2.56
same,interaction score,4H850-bN,0.801
same,interaction score,4H619-bN,-1.26
same,interaction score,4H906-bN,-0.17
same,interaction score,4H3974-bN,-0.469
same,interaction score,4H3638-bN,0.732
same,interaction score,4H570-bN,0.408
same,interaction score,4H584-bN,0.234
DKNAQLKQEIAELEQENAELKWKIAQLEQ [4H3613-bA],interaction score,4H906-bA,-0.971
same,interaction score,4H3974-bA,-0.83
same,interaction score,4H591-bA,-0.523
same,interaction score,4H3628-bA,-0.292
same,interaction score,4H3926-bA,2.15
same,interaction score,4H3817-bA,-0.898
same,interaction score,4H570-bA,-0.148
same,interaction score,4H626-bA,-0.846
same,interaction score,4H850-bA,0.586
same,interaction score,4H3613-bA,-0.128
same,interaction score,4H3858-bA,-0.117
DKNQQLEQKNQELEQKIQELKWEIQELEQ [4H3497-bN],interaction score,4H3497-bN,-1.39
same,interaction score,4H591-bN,-0.818
same,interaction score,4H3628-bN,-0.414
same,interaction score,4H626-bN,-2.23
same,interaction score,4H906-bN,-0.915
same,interaction score,4H3613-bN,-1.36
same,interaction score,4H3926-bN,-1.9
DKNAQLKQEIAELEQKIAELKWKNAQLEQ [4H3631-bA],interaction score,4H906-bA,-0.872
same,interaction score,4H3974-bA,0.937
same,interaction score,4H3631-bA,0.816
same,interaction score,4H584-bA,0.0123
same,interaction score,4H3817-bA,0.452
same,interaction score,4H570-bA,-0.919
same,interaction score,4H850-bA,-0.369
same,interaction score,4H619-bA,-0.0328
same,interaction score,4H3638-bA,-0.00348
DEIAALEAKIAALEAENAALEAKIAALKG [4H278-AA],interaction score,4H3134-AA,1.9
same,interaction score,4H510-AA,1.09
same,interaction score,4H2873-AA,1.66
same,interaction score,4H2985-AA,1.94
same,interaction score,4H3409-AA,0.702
same,interaction score,4H390-AA,1.6
same,interaction score,4H278-AA,1.38
same,interaction score,4H3940-AA,0.936
same,interaction score,4H775-AA,-1.16
same,interaction score,4H3625-AA,1.32
same,interaction score,4H816-AA,0.427
same,interaction score,4H87-AA,-1.44
DKIAALKAKNAALKAKIAALKAENAALEG [O7-AA],interaction score,P9-AA,-1.37
same,interaction score,P10-AA,-1.18
same,interaction score,O8-AA,2.12
same,interaction score,O7-AA,-1.65
KNSQLKEEIQQLEEENQQLEEKIRQLKYGC [P6SC1],interaction score,P8mS,-2.55
same,interaction score,P6mS,-2.87
same,interaction score,P8,-2.12
same,interaction score,P7mS,-2.22
same,interaction score,P9,-1.54
same,interaction score,P6SC2,-2.43
same,interaction score,P7,-0.456
same,interaction score,P6SC1,-2.56
DKNAQLKQENAELKQKIAELKWEIAQLEQ [4H3817-bA],interaction score,4H906-bA,-0.916
same,interaction score,4H3974-bA,1.27
same,interaction score,4H584-bA,-1.24
same,interaction score,4H3817-bA,-0.506
same,interaction score,4H570-bA,-1.2
same,interaction score,4H850-bA,-0.849
same,interaction score,4H619-bA,-1.25
same,interaction score,4H3858-bA,-1.18
